Experimental findings from patent US20200407419A1 (LONZA SALES, published 2020) are described below.

Assay [1] has as its target IL-7 receptor (IL-7R) on PBMCs (UniProt P16871). Nature of the assay: cell-based or functional assay.
The target in assay [2] is CD40 on human B-cells (human, UniProt P25942 21-277). Nature of the assay: cell-based or functional assay.
CD40 on human B-cells, sequence (P25942 21-277): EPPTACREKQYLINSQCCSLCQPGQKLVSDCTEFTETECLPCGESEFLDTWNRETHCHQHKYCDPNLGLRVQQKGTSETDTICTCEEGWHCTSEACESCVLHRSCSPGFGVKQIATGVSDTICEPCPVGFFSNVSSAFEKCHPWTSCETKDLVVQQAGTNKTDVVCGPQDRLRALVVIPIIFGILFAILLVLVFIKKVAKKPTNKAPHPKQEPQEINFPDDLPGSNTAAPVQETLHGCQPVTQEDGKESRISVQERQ

IL-7 receptor (IL-7R) on PBMCs, sequence (P16871 21-459 limits assumed): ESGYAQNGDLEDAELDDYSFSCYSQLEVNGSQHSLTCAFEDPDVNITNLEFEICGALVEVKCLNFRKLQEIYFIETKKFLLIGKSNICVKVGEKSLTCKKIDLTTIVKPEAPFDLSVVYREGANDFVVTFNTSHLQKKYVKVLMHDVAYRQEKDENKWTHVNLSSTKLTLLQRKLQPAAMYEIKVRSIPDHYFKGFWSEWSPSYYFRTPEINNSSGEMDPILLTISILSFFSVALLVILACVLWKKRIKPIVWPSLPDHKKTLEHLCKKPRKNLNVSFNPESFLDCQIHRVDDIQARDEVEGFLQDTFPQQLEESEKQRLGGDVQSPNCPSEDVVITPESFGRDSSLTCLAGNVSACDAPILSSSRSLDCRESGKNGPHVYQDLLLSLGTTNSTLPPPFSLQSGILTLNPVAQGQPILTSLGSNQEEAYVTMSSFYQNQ

“IL-7 exosomes from the pDisplay plasmid encoding a fusion of IL-7 and PDGF Receptor (ligand)” returned an IC50 (p/ml) of reduction of IL-7R levels on PBMCs in assay [1] of 1.1e+11 p/ml.
Consider “exosomes with trimeric CD40L-PTGFRN construct pCB-527 (PTGFRN-trimeric CD40L-GFP) (ligand)”, for which, in assay [2], the EC50 of B-cell activation (CD69 positivity on B-cells), ng/mL of CD40L turned out to be 1.89 ng/mL and the EC50 of B-cell activation (CD69 positivity on B-cells), particles/mL came out at 4.53e+08 particles/mL.
In turn, “recombinant human CD40L (Biolegend, Catalog No. 591702) (from UniProt P29965 113-261) (ligand)” displayed an EC50 of B-cell activation (CD69 positivity on B-cells), ng/mL of CD40L in assay [2] of 28.5 ng/mL.

B1: exosomes with trimeric CD40L-PTGFRN construct pCB-766 (tag-less, lacking the C-terminal GFP) (ligand)
chain: MQKGDQNPQIAAHVISEASSKTTSVLQWAEKGYYTMSNNLVTLENGKQLTVKRQGLYYIYAQVTFCSNREASSQAPFIASLCLKSPGRFERILLRAANTHSSAKPCGQQSIHLGGVFELQPGASVFVNVTDPSQVSHGTGFTSFGLLKLGSGGSGGSGGSGMQKGDQNPQIAAHVISEASSKTTSVLQWAEKGYYTMSNNLVTLENGKQLTVKRQGLYYIYAQVTFCSNREASSQAPFIASLCLKSPGRFERILLRAANTHSSAKPCGQQSIHLGGVFELQPGASVFVNVTDPSQVSHGTGFTSFGLLKLGSGGSGGSGGSGMQKGDQNPQIAAHVISEASSKTTSVLQWAEKGYYTMSNNLVTLENGKQLTVKRQGLYYIYAQVTFCSNREASSQAPFIASLCLKSPGRFERILLRAANTHSSAKPCGQQSIHLGGVFELQPGASVFVNVTDPSQVSHGTGFTSFGLLKLSAGGGGSGGGGSRVVRVPTATLVRVVGTELVIPCNVSDYDGPSEQNFDWSFSSLGSSFVELASTWEVGFPAQLYQERLQRGEILLRRTANDAVELHIKNVQPSDQGHYKCSTPSTDATVQGNYEDTVQVKVLADSLHVGPSARPPPSLSLREGEPFELRCTAASASPLHTHLALLWEVHRGPARRSVLALTHEGRFHPGLGYEQRYHSGDVRLDTVGSDAYRLSVSRALSADQGSYRCIVSEWIAEQGNWQEIQEKAVEVATVVIQPSVLRAAVPKNVSVAEGKELDLTCNITTDRADDVRPEVTWSFSRMPDSTLPGSRVLARLDRDSLVHSSPHVALSHVDARSYHLLVRDVSKENSGYYYCHVSLWAPGHNRSWHKVAEAVSSPAGVGVTWLEPDYQVYLNASKVPGFADDPTELACRVVDTKSGEANVRFTVSWYYRMNRRSDNVVTSELLAVMDGDWTLKYGERSKQRAQDGDFIFSKEHTDTFNFRIQRTTEEDRGNYYCVVSAWTKQRNNSWVKSKDVFSKPVNIFWALEDSVLVVKARQPKPFFAAGNTFEMTCKVSSKNIKSPRYSVLIMAEKPVGDLSSPNETKYIISLDQDSVVKLENWTDASRVDGVVLEKVQEDEFRYRMYQTQVSDAGLYRCMVTAWSPVRGSLWREAATSLSNPIEIDFQTSGPIFNASVHSDTPSVIRGDLIKLFCIITVEGAALDPDDMAFDVSWFAVHSFGLDKAPVLLSSLDRKGIVTTSRRDWKSDLSLERVSVLEFLLQVHGSEDQDFGNYYCSVTPWVKSPTGSWQKEAEIHSKPVFITVKMDVLNAFKYPLLIGVGLSTVIGLLSCLIGYCSSHWCCKKEVQETRRERRRLMSMEMD
As for B1, in assay [2], the “EC50 of B-cell activation (CD69 positivity on B-cells), ng/mL of CD40L” value was determined as 1.68 ng/mL and the “EC50 of B-cell activation (CD69 positivity on B-cells), particles/mL” value was 6.63e+08 particles/mL.
